Reference: the supplement of paper PMC9112550, “Optimization of the antimicrobial peptide Bac7 by deep mutational scanning” (BMC Biology, 2022)

test system: Escherichia coli TOP10; test: shrunken log2 fold change of peptide-encoding DNA abundance (4.5 h post-induction vs induction); higher = less antimicrobial activity (less host growth inhibition); details: time post-induction: 4.5 h; library: site-saturation at positions 5, 18, 19, 20
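Further: peptides expressed intracellularly from a pBAD plasmid library in pooled LB shake-flask culture, induced with 0.3% L-arabinose, DNA abundance read by NGS, three biological replicates, DESeq2 with apeglm shrinkage.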

First: RRIRYRPPRLPRPRPRPYIFPRP
Second: RRIRMRPPRLPRPRPRPIQMPRP
The “shrunken log2 fold change” value of the first is lower: -0.322 for the first, -0.0558 for the second.

RRIRQRPPRLPRPRPRPCPHPRP and RRIRYRPPRLPRPRPRPSGQPRP are within 0.2 log units of each other in “shrunken log2 fold change” value: -0.141 for the first, -0.000925 for the second.

RRIRTRPPRLPRPRPRPRRHPRP and RRIRARPPRLPRPRPRPNTNPRP are within 0.2 log units of each other in “shrunken log2 fold change” value: 0.0424 for the first, -0.0214 for the second.

First: RRIRLRPPRLPRPRPRPATDPRP
Second: RRIRPRPPRLPRPRPRPWNSPRP
The “shrunken log2 fold change” value of the first is higher: 0.142 for the first, -0.163 for the second.

First: RRIRYRPPRLPRPRPRPMWRPRP
Second: RRIRWRPPRLPRPRPRPDGPPRP
The “shrunken log2 fold change” value of the first is lower: -0.27 for the first, 0.199 for the second.

RRIRGRPPRLPRPRPRPKEFPRP and RRIRQRPPRLPRPRPRPMIVPRP are within 0.2 log units of each other in “shrunken log2 fold change” value: -0.0157 for the first, 0.000655 for the second.

Going from RRIRCRPPRLPRPRPRPVNPPRP to RRIRARPPRLPRPRPRPSWLPRP, the “shrunken log2 fold change” value rises from -0.176 to 0.0254.

Compared with RRIRQRPPRLPRPRPRPRTDPRP, RRIRVRPPRLPRPRPRPLGRPRP is higher in “shrunken log2 fold change” value: 0.00812 for the first, 0.267 for the second.

Compared with RRIRHRPPRLPRPRPRPYIHPRP, RRIRYRPPRLPRPRPRPFYCPRP is lower in “shrunken log2 fold change” value: -0.322 for the first, -1.27 for the second.

RRIRYRPPRLPRPRPRPWPKPRP and RRIRHRPPRLPRPRPRPMVWPRP are within 0.2 log units of each other in “shrunken log2 fold change” value: 0.203 for the first, 0.0787 for the second.

RRIRFRPPRLPRPRPRPNFQPRP and RRIRCRPPRLPRPRPRPWTGPRP are within 0.2 log units of each other in “shrunken log2 fold change” value: -0.272 for the first, -0.422 for the second.

RRIRSRPPRLPRPRPRPRQCPRP and RRIRHRPPRLPRPRPRPQPCPRP are within 0.2 log units of each other in “shrunken log2 fold change” value: 0.159 for the first, 0.0971 for the second.

RRIRFRPPRLPRPRPRPDRTPRP and RRIRGRPPRLPRPRPRPYCKPRP are within 0.2 log units of each other in “shrunken log2 fold change” value: -0.0783 for the first, 0.0688 for the second.

Compared with RRIRVRPPRLPRPRPRPKDGPRP, RRIRGRPPRLPRPRPRPGQRPRP is higher in “shrunken log2 fold change” value: 0.0237 for the first, 0.345 for the second.

Compared with RRIRKRPPRLPRPRPRPNTPPRP, RRIRLRPPRLPRPRPRPKAQPRP is lower in “shrunken log2 fold change” value: 0.221 for the first, -0.00354 for the second.

RRIRVRPPRLPRPRPRPTTMPRP and RRIRARPPRLPRPRPRPMHFPRP are within 0.2 log units of each other in “shrunken log2 fold change” value: 0.00526 for the first, 0.122 for the second.

RRIRLRPPRLPRPRPRPYVSPRP and RRIRMRPPRLPRPRPRPDHQPRP are within 0.2 log units of each other in “shrunken log2 fold change” value: -0.0356 for the first, 0.143 for the second.

Compared with RRIRRRPPRLPRPRPRPHLHPRP, RRIRMRPPRLPRPRPRPQAIPRP is lower in “shrunken log2 fold change” value: 0.216 for the first, -0.00149 for the second.

RRIRQRPPRLPRPRPRPEFVPRP and RRIRPRPPRLPRPRPRPKEWPRP are within 0.2 log units of each other in “shrunken log2 fold change” value: 0.031 for the first, -0.00152 for the second.

Compared with RRIRARPPRLPRPRPRPPWSPRP, RRIRIRPPRLPRPRPRPHPWPRP is lower in “shrunken log2 fold change” value: 0.585 for the first, -0.319 for the second.

RRIRVRPPRLPRPRPRPYKAPRP and RRIRKRPPRLPRPRPRPMNCPRP are within 0.2 log units of each other in “shrunken log2 fold change” value: -0.0443 for the first, -0.014 for the second.

RRIRMRPPRLPRPRPRPLYDPRP and RRIRQRPPRLPRPRPRPMVGPRP are within 0.2 log units of each other in “shrunken log2 fold change” value: -0.0878 for the first, -0.00963 for the second.

Compared with RRIRRRPPRLPRPRPRPMRHPRP, RRIRCRPPRLPRPRPRPKDAPRP is lower in “shrunken log2 fold change” value: 1.18 for the first, 0.183 for the second.

RRIRIRPPRLPRPRPRPCCCPRP and RRIRIRPPRLPRPRPRPMYDPRP are within 0.2 log units of each other in “shrunken log2 fold change” value: -0.641 for the first, -0.726 for the second.

RRIRCRPPRLPRPRPRPMHCPRP and RRIRERPPRLPRPRPRPKCMPRP are within 0.2 log units of each other in “shrunken log2 fold change” value: -0.107 for the first, -0.0455 for the second.

Going from RRIRYRPPRLPRPRPRPRWHPRP to RRIRSRPPRLPRPRPRPGDHPRP, the “shrunken log2 fold change” value falls from -0.124 to -0.338.

Going from RRIRTRPPRLPRPRPRPRWQPRP to RRIRTRPPRLPRPRPRPASEPRP, the “shrunken log2 fold change” value falls from 0.47 to -0.0873.

RRIRLRPPRLPRPRPRPKYGPRP and RRIRHRPPRLPRPRPRPKWYPRP are within 0.2 log units of each other in “shrunken log2 fold change” value: -0.364 for the first, -0.462 for the second.

Going from RRIRPRPPRLPRPRPRPPRRPRP to RRIRFRPPRLPRPRPRPFAKPRP, the “shrunken log2 fold change” value falls from 0.638 to -0.026.

RRIRWRPPRLPRPRPRPRVEPRP and RRIRTRPPRLPRPRPRPLQKPRP are within 0.2 log units of each other in “shrunken log2 fold change” value: 0.0508 for the first, -0.134 for the second.

Compared with RRIRERPPRLPRPRPRPESAPRP, RRIRSRPPRLPRPRPRPLNTPRP is lower in “shrunken log2 fold change” value: 0.056 for the first, -0.563 for the second.

Going from RRIRYRPPRLPRPRPRPDYWPRP to RRIRDRPPRLPRPRPRPALWPRP, the “shrunken log2 fold change” value rises from -0.134 to 1.05.

First: RRIRGRPPRLPRPRPRPIIHPRP
Second: RRIRARPPRLPRPRPRPKCMPRP
The “shrunken log2 fold change” value of the first is lower: -0.261 for the first, 0.0351 for the second.

RRIRHRPPRLPRPRPRPMQKPRP and RRIRERPPRLPRPRPRPQQDPRP are within 0.2 log units of each other in “shrunken log2 fold change” value: -0.0124 for the first, -0.108 for the second.

RRIRYRPPRLPRPRPRPKSLPRP and RRIRCRPPRLPRPRPRPMEMPRP are within 0.2 log units of each other in “shrunken log2 fold change” value: -0.204 for the first, -0.193 for the second.

Compared with RRIRDRPPRLPRPRPRPGMAPRP, RRIRERPPRLPRPRPRPRRAPRP is higher in “shrunken log2 fold change” value: 0.22 for the first, 0.566 for the second.

RRIRNRPPRLPRPRPRPHIDPRP and RRIRKRPPRLPRPRPRPVMSPRP are within 0.2 log units of each other in “shrunken log2 fold change” value: -0.186 for the first, -0.123 for the second.

First: RRIRNRPPRLPRPRPRPQVTPRP
Second: RRIRKRPPRLPRPRPRPKYWPRP
The “shrunken log2 fold change” value of the first is lower: -0.134 for the first, 0.255 for the second.

Compared with RRIRPRPPRLPRPRPRPSNTPRP, RRIRTRPPRLPRPRPRPDCTPRP is higher in “shrunken log2 fold change” value: -0.316 for the first, 0.0818 for the second.

RRIRFRPPRLPRPRPRPNMLPRP and RRIRFRPPRLPRPRPRPQKYPRP are within 0.2 log units of each other in “shrunken log2 fold change” value: -0.669 for the first, -0.864 for the second.

Going from RRIRHRPPRLPRPRPRPIPGPRP to RRIRERPPRLPRPRPRPLPEPRP, the “shrunken log2 fold change” value rises from -0.158 to 0.0716.

First: RRIRHRPPRLPRPRPRPIGKPRP
Second: RRIRERPPRLPRPRPRPVRGPRP
The “shrunken log2 fold change” value of the first is lower: 0.0218 for the first, 0.543 for the second.

Going from RRIRPRPPRLPRPRPRPHTQPRP to RRIRGRPPRLPRPRPRPHYFPRP, the “shrunken log2 fold change” value rises from 0.0349 to 0.313.

Going from RRIRSRPPRLPRPRPRPFWWPRP to RRIRHRPPRLPRPRPRPLQKPRP, the “shrunken log2 fold change” value falls from 0.309 to 0.104.

RRIRNRPPRLPRPRPRPNSAPRP and RRIRLRPPRLPRPRPRPCNSPRP are within 0.2 log units of each other in “shrunken log2 fold change” value: 0.026 for the first, 0.165 for the second.

RRIRNRPPRLPRPRPRPCIPPRP and RRIRHRPPRLPRPRPRPTGPPRP are within 0.2 log units of each other in “shrunken log2 fold change” value: -0.0387 for the first, 0.149 for the second.

Compared with RRIRNRPPRLPRPRPRPWFVPRP, RRIRKRPPRLPRPRPRPMWRPRP is higher in “shrunken log2 fold change” value: -0.429 for the first, 0.481 for the second.

RRIRQRPPRLPRPRPRPIEDPRP and RRIRFRPPRLPRPRPRPYHVPRP are within 0.2 log units of each other in “shrunken log2 fold change” value: -0.126 for the first, 0.0272 for the second.

RRIRTRPPRLPRPRPRPIAWPRP and RRIRYRPPRLPRPRPRPVFAPRP are within 0.2 log units of each other in “shrunken log2 fold change” value: -0.104 for the first, 0.0473 for the second.

First: RRIRMRPPRLPRPRPRPQMVPRP
Second: RRIRNRPPRLPRPRPRPRMMPRP
The “shrunken log2 fold change” value of the first is lower: -0.243 for the first, 0.0809 for the second.

Going from RRIRCRPPRLPRPRPRPGCYPRP to RRIRQRPPRLPRPRPRPQWCPRP, the “shrunken log2 fold change” value rises from -0.501 to 0.142.

RRIRHRPPRLPRPRPRPQQNPRP and RRIRCRPPRLPRPRPRPGYPPRP are within 0.2 log units of each other in “shrunken log2 fold change” value: -0.0705 for the first, -0.00859 for the second.

RRIRARPPRLPRPRPRPIASPRP and RRIRDRPPRLPRPRPRPCFYPRP are within 0.2 log units of each other in “shrunken log2 fold change” value: -0.0816 for the first, -0.167 for the second.

Compared with RRIRHRPPRLPRPRPRPYNMPRP, RRIRWRPPRLPRPRPRPEMNPRP is higher in “shrunken log2 fold change” value: -0.186 for the first, 0.753 for the second.

Going from RRIRIRPPRLPRPRPRPYIIPRP to RRIRERPPRLPRPRPRPGFPPRP, the “shrunken log2 fold change” value rises from -0.403 to 0.176.

RRIRVRPPRLPRPRPRPDEQPRP and RRIRNRPPRLPRPRPRPQPSPRP are within 0.2 log units of each other in “shrunken log2 fold change” value: 0.353 for the first, 0.186 for the second.

First: RRIRERPPRLPRPRPRPHCMPRP
Second: RRIRFRPPRLPRPRPRPCSNPRP
The “shrunken log2 fold change” value of the first is lower: -0.235 for the first, -0.0316 for the second.

First: RRIRSRPPRLPRPRPRPHKQPRP
Second: RRIRLRPPRLPRPRPRPLFEPRP
The “shrunken log2 fold change” value of the first is lower: -0.0702 for the first, 1.33 for the second.

Compared with RRIRCRPPRLPRPRPRPCLLPRP, RRIRWRPPRLPRPRPRPYYHPRP is higher in “shrunken log2 fold change” value: -1.45 for the first, -0.306 for the second.

RRIRYRPPRLPRPRPRPDNYPRP and RRIRQRPPRLPRPRPRPVTCPRP are within 0.2 log units of each other in “shrunken log2 fold change” value: -0.175 for the first, 0.0138 for the second.

First: RRIRVRPPRLPRPRPRPNHTPRP
Second: RRIRPRPPRLPRPRPRPFYRPRP
The “shrunken log2 fold change” value of the first is lower: -0.402 for the first, 0.0278 for the second.

RRIRCRPPRLPRPRPRPKDVPRP and RRIRSRPPRLPRPRPRPAWFPRP are within 0.2 log units of each other in “shrunken log2 fold change” value: 0.015 for the first, 0.171 for the second.

For RRIRQRPPRLPRPRPRPNTPPRP, the “shrunken log2 fold change” value was -0.0687.
